From patent publication US20240376168A1 (LETO LABORATORIES, published 2024)
Substitutions are numbered along the chain they refer to. In names and notes the source's numbering stands. Blank lines part the entries; values can stand above or below the binder they belong to.

Tests used:
[1] = target: β-Klotho overexpressed on HEK293 cells; assay: cell-based or functional assay
[2] = target: T1, extracellular domain of human receptor β-Klotho with a C-terminal Poly-His tag (human, UniProt Q86Z14 1-996); assay: SPR, Biacore-8K; His-tagged β-Klotho ECD on NTA chip, FGF21 mutant as analyte, kinetic fit
T1 construct: extracellular domain; Immobilised on an NTA chip at 1,000 RU; also called human β-Klotho protein; KLB; not shown: Poly-His tag at the C-terminus
T1 sequence (looked up): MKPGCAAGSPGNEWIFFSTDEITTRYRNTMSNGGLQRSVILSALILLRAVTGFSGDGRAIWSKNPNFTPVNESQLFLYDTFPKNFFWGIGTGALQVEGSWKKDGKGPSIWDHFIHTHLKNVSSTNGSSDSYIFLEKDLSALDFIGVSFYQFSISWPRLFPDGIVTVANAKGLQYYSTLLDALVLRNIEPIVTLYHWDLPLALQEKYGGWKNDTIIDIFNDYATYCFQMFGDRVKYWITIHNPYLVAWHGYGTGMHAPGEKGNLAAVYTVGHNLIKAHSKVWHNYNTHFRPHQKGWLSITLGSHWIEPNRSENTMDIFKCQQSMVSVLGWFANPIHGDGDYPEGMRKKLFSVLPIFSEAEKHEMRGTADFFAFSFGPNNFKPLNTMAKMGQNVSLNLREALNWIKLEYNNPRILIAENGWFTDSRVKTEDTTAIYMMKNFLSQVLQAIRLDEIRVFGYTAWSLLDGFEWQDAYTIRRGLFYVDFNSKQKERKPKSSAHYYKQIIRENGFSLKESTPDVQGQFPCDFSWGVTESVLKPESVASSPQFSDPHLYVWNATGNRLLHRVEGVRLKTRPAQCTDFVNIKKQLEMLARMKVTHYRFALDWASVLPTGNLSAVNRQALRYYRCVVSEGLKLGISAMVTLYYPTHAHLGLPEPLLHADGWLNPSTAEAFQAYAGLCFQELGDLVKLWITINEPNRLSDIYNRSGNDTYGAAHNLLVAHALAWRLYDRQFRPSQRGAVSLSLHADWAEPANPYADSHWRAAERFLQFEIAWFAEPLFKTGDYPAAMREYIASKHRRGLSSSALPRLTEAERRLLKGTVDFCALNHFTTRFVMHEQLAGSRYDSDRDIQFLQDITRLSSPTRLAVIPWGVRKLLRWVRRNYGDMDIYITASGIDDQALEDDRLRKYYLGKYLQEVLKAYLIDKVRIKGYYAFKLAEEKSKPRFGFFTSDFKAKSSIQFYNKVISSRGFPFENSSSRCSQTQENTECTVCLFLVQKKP
Protocol: An extracellular domain of a human receptor β-Klotho (a Poly-His tag was fused at a C-terminus) was expressed and purified in the present disclosure, and a sequence of the protein was acquired from the Uniprot database. An affinity assay was conducted with Biacore-8K. Specifically, a human β-Klotho protein was immobilized on an NTA chip at a fixed amount of 1,000 RU with PBS (including 0.05% Tween-20) as a flow buffer. An FGF21 mutant was allowed to flow through the chip at different concentrations to determine the binding of the FGF21 mutant to β-Klotho. Final data were fitted using kinetics, and a dissociation constant KD was calculated.

Activity in β-Klotho-ERK cells (EC50) [1]: 2.14 nM
Kd [2]: 59.4 nM
B1: FGF21 (170C/Ins-172G/173C) mutant 1409 (ligand)
chain: HPIPDSSPLLQFGGQVRQRYLYTDDAQQTEAHLEIREDGTVGGAADQSPESLLQLKALKPGVIQILGVKTSRFLCQRPDGALYGSLHFDPEACSFRELLLEDGYNVYQSEAHGLPLHLPGQKSPHRDPAPRGPARFLPLPGLPPALPEPPGILAPQPPDVGSSDPLSLVCPGCQGRSPSYAS
modifications: intramolecular disulfide bond between C170 and C173

Activity in β-Klotho-ERK cells (EC50) [1]: 2.09 nM
Kd [2]: 64.6 nM
B2: FGF21 (170C/Ins-172S/173C) mutant 1413 (ligand)
chain: B1 chain with G172S
modifications: disulfide bond introduced between 170C and 173C
notes: A small number of incorrect dimers is reported

Activity in β-Klotho-ERK cells (EC50) [1]: 2.52 nM
Kd [2]: 69.9 nM
B3: FGF21 (170C/Ins-172A/173C) mutant 1412 (ligand)
chain: B1 chain with G172A
modifications: disulfide bond introduced between 170C and 173C
notes: as for B2

Activity in β-Klotho-ERK cells (EC50) [1]: 1.48 nM
Kd [2]: 67.5 nM
B4: FGF21 (Del-P171) mutant 1408 (ligand)
chain: HPIPDSSPLLQFGGQVRQRYLYTDDAQQTEAHLEIREDGTVGGAADQSPESLLQLKALKPGVIQILGVKTSRFLCQRPDGALYGSLHFDPEACSFRELLLEDGYNVYQSEAHGLPLHLPGQKSPHRDPAPRGPARFLPLPGLPPALPEPPGILAPQPPDVGSSDPLSLVGSQGRSPSYAS

Activity in β-Klotho-ERK cells (EC50) [1]: 0.85 nM
Kd [2]: 51.2 nM
B5: FGF21 (121Q, 168L) mutant 1414 (ligand)
chain: HPIPDSSPLLQFGGQVRQRYLYTDDAQQTEAHLEIREDGTVGGAADQSPESLLQLKALKPGVIQILGVKTSRFLCQRPDGALYGSLHFDPEACSFRELLLEDGYNVYQSEAHGLPLHLPGQKSPHRDPAPRGPARFLPLPGLPPALPEPPGILAPQPPDVGSSDPLSLVGPSQGRSPSYAS
notes: Control that stands for wild-type FGF21; An alanine is added before His1 of mature FGF21; also called FGF21 control mutant 1414

Activity in β-Klotho-ERK cells (EC50) [1]: 0.999 nM
Kd [2]: 69.4 nM
B6: FGF21 (170C/173C) mutant 1411 (ligand)
chain: B5 chain with G170C, Q173C
modifications: disulfide bond introduced between 170C and 173C
notes: Only a trace amount of incorrect dimers is reported

Activity in β-Klotho-ERK cells (EC50) [1]: 1.15 nM
Kd [2]: 42.5 nM
B7: FGF21 (P171G) mutant 1407 (ligand)
chain: B5 chain with P171G
notes: also called FGF21 mutant P171G
